According to the supplement of paper PMC9732359:
± gives the uncertainty stated by the source.

Test: protein stability index of a GFP-peptide fusion (yeast GPS) (PSI 1-4); higher = more stable; sorted into four equal gates, so the index is relative within each strain
Method in brief: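 Plasmids in a pooled yeast library fused tiled 17-residue yeast protein peptides downstream of GFP and also expressed Cherry. Mid-log cultures grown without leucine were sorted into four equal gates by GFP/Cherry fluorescence ratio. Each gate's plasmids were PCR-amplified and Illumina-sequenced, and reads were matched to strains by barcodes. The protein stability index is derived by multiplying each gate's read frequency by its gate number and summing the results.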

| Sequence | protein stability index (doa10∆) | protein stability index (pdr5∆) | protein stability index (san1∆) | protein stability index (ubr1∆) |
| --- | --- | --- | --- | --- |
| FITFSLDDWISIGYETE [IRR1] | 2.56 ± 0.078 | 2.61 ± 0.088 | 2.65 ± 0.084 | 2.6 ± 0.071 |
| PQAILAKNSIIDSSNLP [SWI1] | 2.02 ± 0.061 | 2.42 ± 0.061 | 2.32 ± 0.05 | 2.36 ± 0.04 |
| ILLRYHHNDISNDSQSH [YCG1] | 1.65 ± 0.15 | 1.28 ± 0.13 | 1.96 ± 0.2 | 1.51 ± 0.081 |
| EGWFYKRAASVARHIYM [RPS19A] | 1.97 ± 0.16 | 2.51 ± 0.22 | 1.99 ± 0.14 | 2.33 ± 0.17 |
| VQEMALGGPITKESQPT [FAS2] | 2.78 ± 0.099 | 2.72 ± 0.078 | 2.87 ± 0.065 | 3.01 ± 0.05 |
| ELFKDYKPGSITLENIT [MED1] | 2.53 ± 0.067 | 2.36 ± 0.053 | 1.96 ± 0.062 | 2.11 ± 0.042 |
| QIEKKKICRGRMNTIIT [SIR4] | 3.52 ± 0.17 | 3.43 ± 0.14 | 3.52 ± 0.24 | 2.63 ± 0.27 |
| ETSCDNYHPMNIDETSD [SMC4] | 3.02 ± 0.064 | 3.16 ± 0.052 | 3.15 ± 0.041 | 3.17 ± 0.051 |
| YSALNSTYLPKLISAFD [RRP42] | 2.69 ± 0.068 | 2.41 ± 0.06 | 2.57 ± 0.06 | 2.39 ± 0.055 |
| LREAPADYWTHAYRDVL [SNF6] | 2.55 ± 0.12 | 2.7 ± 0.1 | 3.42 ± 0.17 | 2.38 ± 0.061 |
| EELVSLAVFLFDIYNRD [YJL039C/NUP192] | 2.03 ± 0.099 | 1.24 ± 0.059 | 1.41 ± 0.2 | 1.39 ± 0.071 |
| GGTNEDDFTDAIQFVKE [YCS4] | 2.35 ± 0.14 | 2.6 ± 0.15 | 3.39 ± 0.07 | 3.69 ± 0.19 |
| LGKFKNIIASPLSAGFN [SIN4] | 1.88 ± 0.06 | 1.94 ± 0.05 | 1.95 ± 0.09 | 2.04 ± 0.056 |
| RLDSYKVIEQPITSETA [RPL25] | 1.94 ± 0.055 | 2.31 ± 0.079 | 2.31 ± 0.079 | 2.5 ± 0.067 |
| KTIQINNEKVVQYLRSV [YML031W/NDC1] | 3.23 ± 0.17 | 3.24 ± 0.12 |  |  |
| AYFMVGAMGLLSSAGAK [RIP1] | 1.99 ± 0.11 | 2.51 ± 0.11 | 2.06 ± 0.18 | 2.34 ± 0.091 |
| MKVFVTKHLMPQDLTFN [RPB7] | 2.96 ± 0.062 | 2.87 ± 0.054 | 2.54 ± 0.066 | 2.94 ± 0.051 |
| MSIVFGDKFSEDFRIQF [UBP6] | 3.28 ± 0.13 | 2.71 ± 0.1 | 2.2 ± 0.092 | 2.37 ± 0.063 |
| SQEQGMGMDLYKTSKAA [FAS1] | 3.05 ± 0.086 | 3.15 ± 0.07 | 2.72 ± 0.059 | 3.3 ± 0.057 |
| LTFVSVDEELGPSIYKT [SCL1] | 2.37 ± 0.065 | 1.94 ± 0.05 | 3.02 ± 0.054 | 2.99 ± 0.067 |
